The assay deals with T1, albumin (in whole human plasma) (human, UniProt P02768 25-609).
T1 construct: Endogenous plasma protein, not a purified reagent
The assay is described as follows: ethanol precipitation of human plasma spiked with TRX; fractions followed by western blot. For orientation: A western blot detects proteins with antibodies after separation by electrophoresis.

T1 sequence (P02768 25-609 limits assumed): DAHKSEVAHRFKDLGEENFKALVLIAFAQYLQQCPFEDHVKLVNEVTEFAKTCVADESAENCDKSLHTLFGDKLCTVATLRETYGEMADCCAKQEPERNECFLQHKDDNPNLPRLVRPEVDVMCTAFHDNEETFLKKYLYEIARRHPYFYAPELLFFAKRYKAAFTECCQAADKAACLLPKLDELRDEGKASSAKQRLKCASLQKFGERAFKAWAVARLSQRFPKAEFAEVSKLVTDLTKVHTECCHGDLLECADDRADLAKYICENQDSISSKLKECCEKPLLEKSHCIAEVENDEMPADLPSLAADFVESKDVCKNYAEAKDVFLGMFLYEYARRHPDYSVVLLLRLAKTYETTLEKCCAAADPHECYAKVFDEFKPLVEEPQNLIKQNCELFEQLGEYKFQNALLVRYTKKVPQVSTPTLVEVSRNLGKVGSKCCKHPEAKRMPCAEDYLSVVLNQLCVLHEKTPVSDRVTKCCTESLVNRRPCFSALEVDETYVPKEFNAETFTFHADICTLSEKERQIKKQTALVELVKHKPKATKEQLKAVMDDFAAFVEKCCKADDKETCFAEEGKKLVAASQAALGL

B1: recombinant human thioredoxin (TRX), full length (enzyme)
chain: VKQIESKTAFQEALDAAGDKLVVVDFSATWCGPCKMIKPFFHSLSEKYSNVIFLEVDVDDCQDVASECEVKCMPTFQFFKKGQKVGEFSGANKEKLEATINELV
notes: It was denatured on SDS gels for the western blots; also called full-length thioredoxin
In the case of B1, the binding result is “binds”.
